The target of this series is Crosstide substrate peptide (UBI).

B1: MyrAkt3HA (full length human Akt3 fused to the myristylation signal from human Src at the N-terminus and to an HA-tag at the C-terminus) (protein)
chain: MGSNKSKPKDASQRRRSSDVTIVKEGWVQKRGEYIKNWRPRYFLLKTDGSFIGYKEKPQDVDLPYPLNNFSVAKCQLMKTERPKPNTFIIRCLQWTTVIERTFHVDTPEEREEWTEAIQAVADRLQRQEEERMNCSPTSQIDNIGEEEMDASTTHHKRKTMNDFDYLKLLGKGTFGKVILVREKASGKYYAMKILKKEVIIAKDEVAHTLTESRVLKNTRHPFLTSLKYSFQTKDRLCFVMEYVNGGELFFHLSRERVFSEDRTRFYGAEIVSALDYLHSGKIVYRDLKLENLMLDKDGHIKITDFGLCKEGITDAATMKTFCGTPEYLAPEVLEDNDYGRAVDWWGLGVVMYEMMCGRLPFYNQDHEKLFELILMEDIKFPRTLSSDAKSLLSGLLIKDPNKRLGGGPDDAKEIMRHSFFSGVNWQDVYDKKLVPPFKPQVTSETDTRYFDEEFTAQTITITPPEKCQQSDCGMLGNWKK
In the case of B1, the “Kinase activity of anti-HA immunopellets (32P incorporation into substrate peptide, scintillation counting)” value was “Kinase activity present in CMV6[MyrAkt3HA] transfected samples was 20 times higher than that present in cells transfected with the control vector CMV6”.

Values taken from patent US20030100049.
